Laboratory results published in patent publication US20260265403A1.

Columns and labels:
[1] = target: human CD24 on cells (human) (UniProt P25063); experiment: flow cytometry (GMFI), MCF-7 cells; EC50 table under the graphs
[2] = target: human CD24 on cells (human) (UniProt P25063); experiment: flow cytometry (GMFI), SKOV3 cells; EC50 table under the graphs [Cont'd) B]
[3] = target: human CD24 on cells (human) (UniProt P25063)
[4] = target: human CD24 on cells (human) (UniProt P25063); experiment: flow cytometry (MFI), MCF-7 cells [Cont'd) B]
[5] = target: human CD24 on cells (human) (UniProt P25063); experiment: flow cytometry (MFI), NALM6 cells [Cont'd) B]
[6] = target: human CD24 on cells (human) (UniProt P25063); experiment: flow cytometry (GMFI), A549 cells
[7] = target: human CD24 on cells (human) (UniProt P25063); experiment: flow cytometry (GMFI), MCF-7 cells
[8] = target: human CD24 on cells (human) (UniProt P25063); experiment: flow cytometry (GMFI), NALM6 cells
CD24-his protein (human) [9] = target: CD24-his protein (human) (UniProt P25063); experiment: ELISA, CD24-his(HEK 293) [Cont'd) B]
Chain of CD24-his protein (human) (P25063 27-59 limits assumed): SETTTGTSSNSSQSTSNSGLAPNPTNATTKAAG

[10] = target: human CD24 on cells (human) (UniProt P25063); experiment: flow cytometry (GMFI), OVCAR3 cells
[11] = target: human CD24 on cells (human) (UniProt P25063); experiment: flow cytometry (GMFI), MCF-7 cells [Cont'd) C]
Human CD24 (human) = Human CD24 (human) (UniProt P25063); experiment: Biacore (SPR); antibody as ligand, human CD24 as analyte
Chain of Human CD24 (human) (P25063 27-59 limits assumed): as above

CD24-his protein (human) [12] = target: CD24-his protein (human) (UniProt P25063); experiment: ELISA, CD24-his (HEK 293), unit taken from the concentration axis
CD24-his-GST(Ecoli) = experiment: ELISA, CD24-his-GST(Ecoli) [Cont'd) B]
Chain of CD24-his-GST(Ecoli) (chain, as listed by the source limits assumed): as the sequence (P25063 27-59 limits assumed) above

[13] = target: human CD24 on cells (human) (UniProt P25063); experiment: flow cytometry (GMFI), MC38-hCD24 cells [Cont'd) C]
CD24-his protein (human) [14] = target: CD24-his protein (human) (UniProt P25063); experiment: Siglec10-PE competition assay (gMFI on the sheet); legend: Siglec-10-his-Biotin mixed with the antibody, plate coated with CD24 protein
[15] = target: human CD24 on cells (human) (UniProt P25063); experiment: cell-based or functional assay

Chain of human CD24 on cells (human) (P25063 27-59): as the sequence (P25063 27-59 limits assumed) above

EC50 [1] [µg/mL]	EC50 [2] [µg/mL]	EC50 (read off the curve) [6] [µg/mL]	EC50 (read off the curve) [7] [µg/mL]	EC50 (read off the curve) [8] [µg/mL]	EC50 (read off the curve) (CD24-his protein (human) [9]) [µg/mL]	EC50 (read off the curve) [10] [µg/mL]	EC50 (read off the curve) [11] [µg/mL]	Kd (Human CD24 (human)) [nM]	EC50 (CD24-his protein (human) [12]) [µg/mL]	Substance	other results
12.9	3.48									human isotype IgG4 (antibody)	
										anti-CD24 ab(SN3) (antibody)	EC50 (read off the curve), phagocytosis of NALM6 cells [3]: 0.3 µg/mL; EC50 (read off the curve), phagocytosis of OVCAR3 cells [3]: 0.7 µg/mL; EC50 (read off the curve) [4]: 0.1 µg/mL; EC50 (read off the curve) [5]: 0.09 µg/mL
0.53	0.38	0.3	0.5	0.3	0.03	0.4	0.3	165	0.0277	IMM47H (antibody)	
		0.3	0.3	0.6	0.02	0.7	0.4	12.4	0.0202	GB7011 (antibody)	EC50 (read off the curve) (CD24-his-GST(Ecoli)): 0.02 µg/mL; EC50 (read off the curve) [13]: 0.3 µg/mL; koff (Human CD24 (human)): 0.0104 s⁻¹; kon (Human CD24 (human)): 839000 M⁻¹ s⁻¹; IC50 (read off the curve) (CD24-his protein (human) [14]): 2 µg/mL
										NS-17(SWA11) (antibody)	EC50 of Phagocytosis assay, IgG1, Kappa; MCF-7 [15]: 0.02 µg/mL; EC50 of Phagocytosis assay, IgG1, Kappa; NALM6 [15]: 1.01 µg/mL; EC50 of Phagocytosis assay, IgG1, Kappa; OVCAR3 [15]: 0.91 µg/mL; EC50 of Phagocytosis assay, IgG4, Kappa; MCF-7 [15]: 0.09 µg/mL; EC50 of Phagocytosis assay, IgG4, Kappa; NALM6 [15]: 0.18 µg/mL
